# Target: the molecule itself
# Assay: crystal structure; Vps75 (1-225) crystallised from the VAH preparation; sitting drop, 0.1 M sodium cacodylate pH 6.5, 25% PEG 4000; four monomers in the asymmetric unit, two tetrameric assemblies in the lattice
protein,measurement,value
"Vps75 (1–225) (domain or fragment, UniProt P53853 1-225, looked up, Vps75, yeast, residues 1-225 (C-terminally truncated), as crystallised; Crystallised from the Vps75-Asf1-H3-H4 preparation; only Vps75 is in the crystal; also called Vps75 tetramer; Vps75 (1-225) dimer) MMSDQENENEHAKAFLGLAKCEEEVDAIEREVELYRLNKMKPVYEKRDAYIDEIAEFWKIVLSQHVSFANYIRASDFKYIDTIDKIKVEWLALESEMYDTRDFSITFHFHGIEGDFKEQQVTKVFQIKKGKDDQEDGILTSEPVPIEWPQSYDSINPDLIKDKRSPEGKKKYRQGMKTIFGWFRWTGLKPGKEFPHGDSLASLFSEEIYPFCVKYYAEAQRDLED",stoichiometry N,4
